Results: the Immune Epitope Database (IEDB)

Columns and labels:
[1] = target: HLA-B*51:01; test: IEDB peptide-MHC binding, purified MHC/direct/fluorescence; filed as Kd, often an IC50 or EC50 that approximates it; ≥ and ≤ were set here for values at or beyond the usual limits of such assays
[2] = target: HLA-B*07:02; test: as above
[3] = target: HLA-B*40:01; test: as above
[4] = target: HLA-A*11:01; test: as above
[5] = target: HLA-A*26:01; test: as above; conditions: source organism: Vibrio cholerae
[6] = target: HLA-A*24:03; test: as above; conditions: source organism: Vibrio cholerae
[7] = target: HLA-B*58:01; test: as above
[8] = target: HLA-A*01:01; test: as above
[9] = target: HLA-A*03:01; test: as above
[10] = target: HLA-A*69:01; test: as above
[11] = target: HLA-B*08:01; test: as above
[12] = target: HLA-A*31:01; test: as above
[13] = target: HLA-B*27:05; test: as above
[14] = target: HLA-B*15:01; test: as above
[15] = target: HLA-A*02:01; test: as above
[16] = target: HLA-B*44:02; test: as above
[17] = target: HLA-B*57:01; test: as above
[18] = target: HLA-B*46:01; test: as above
[19] = target: HLA-B*15:17; test: as above
[20] = target: HLA-B*48:01; test: as above; conditions: source organism: Giardia lamblia ATCC 50803
[21] = target: HLA-B*57:01; test: IEDB peptide-MHC binding, purified MHC/competitive/fluorescence; filed as Kd, often an IC50 or EC50 that approximates it; ≥ and ≤ were set here for values at or beyond the usual limits of such assays; conditions: source organism: Cryptosporidium parvum Iowa II
[22] = target: HLA-B*27:03; test: as above; conditions: source organism: Cryptosporidium parvum Iowa II
[23] = target: HLA-B*18:01; test: as above; conditions: source organism: Cryptosporidium parvum Iowa II
[24] = target: HLA-A*26:01; test: as above; conditions: source organism: Cryptosporidium parvum Iowa II
[25] = target: HLA-B*51:01; test: as above; conditions: source organism: Cryptosporidium parvum Iowa II
[26] = target: HLA-B*46:01; test: as above; conditions: source organism: Cryptosporidium parvum Iowa II
[27] = target: HLA-A*69:01; test: as above; conditions: source organism: Cryptosporidium parvum Iowa II
[28] = target: HLA-B*39:01; test: as above; conditions: source organism: Cryptosporidium parvum Iowa II
[29] = target: HLA-A*02:01; test: as above; conditions: source organism: Cryptosporidium parvum Iowa II
[30] = target: HLA-A*02:12; test: IEDB peptide-MHC binding, purified MHC/direct/fluorescence; filed as Kd, often an IC50 or EC50 that approximates it; ≥ and ≤ were set here for values at or beyond the usual limits of such assays
[31] = target: HLA-A*02:03; test: as above; conditions: source organism: Cryptosporidium parvum Iowa II
[32] = target: HLA-A*02:19; test: as above; conditions: source organism: Cryptosporidium parvum Iowa II
[33] = target: HLA-A*68:02; test: as above; conditions: source organism: Cryptosporidium parvum Iowa II
[34] = target: HLA-A*33:01; test: IEDB peptide-MHC binding, purified MHC/competitive/radioactivity; filed as Kd, often an IC50 or EC50 that approximates it; ≥ and ≤ were set here for values at or beyond the usual limits of such assays; conditions: source organism: Vaccinia virus WR
[35] = target: HLA-A*11:01; test: as above; conditions: source organism: Vaccinia virus WR
[36] = target: HLA-A*03:01; test: as above; conditions: source organism: Vaccinia virus WR
[37] = target: HLA-A*31:01; test: as above; conditions: source organism: Vaccinia virus WR
[38] = target: HLA-A*68:01; test: as above; conditions: source organism: Vaccinia virus WR
[39] = target: HLA-B*83:01; test: IEDB peptide-MHC binding, purified MHC/competitive/fluorescence; filed as Kd, often an IC50 or EC50 that approximates it; ≥ and ≤ were set here for values at or beyond the usual limits of such assays
[40] = target: HLA-B*15:42; test: as above
[41] = target: HLA-B*45:06; test: as above
[42] = target: HLA-B*18:01; test: IEDB peptide-MHC binding, purified MHC/direct/fluorescence; filed as Kd, often an IC50 or EC50 that approximates it; ≥ and ≤ were set here for values at or beyond the usual limits of such assays; conditions: source organism: Mammarenavirus lassaense
[43] = target: HLA-A*02:16; test: as above; conditions: source organism: Listeria monocytogenes serotype 4b str. H7858
[44] = source organism: Mammarenavirus lassaense
[45] = source organism: Vibrio cholerae
[46] = source organism: Giardia lamblia ATCC 50803
[47] = source organism: Cryptosporidium parvum Iowa II
[48] = source organism: Camelpox virus M-96
[49] = source organism: Bacillus cytotoxicus
[50] = source organism: Listeria monocytogenes
[51] = source organism: Listeria monocytogenes serotype 4b str. H7858
[52] = source organism: Yaba-like disease virus
[53] = source organism: Orthohantavirus dobravaense
[54] = source organism: Human immunodeficiency virus 1
[55] = source organism: Mammarenavirus juninense

CGRSCTSSL was tested, and the Kd [1, 44] was ≥ 20 µM and the Kd [2, 44] was 0.558 µM.

For DSDPMDGCE, the Kd [3, 45] was ≥ 20 µM, the Kd [4, 45] was ≥ 20 µM and the Kd [5] was ≥ 20 µM. The Kd [6] was ≥ 20 µM, the Kd [7, 45] was ≥ 20 µM and the Kd [8, 45] was ≥ 20 µM. The Kd [9, 45] was ≥ 20 µM, the Kd [2, 45] was ≥ 20 µM and the Kd [10, 45] was ≥ 20 µM. For the same sequence, the Kd [11, 45] was ≥ 20 µM, the Kd [12, 45] was ≥ 20 µM and the Kd [13, 45] was ≥ 20 µM. For the same sequence, the Kd [14, 45] was ≥ 20 µM, the Kd [15, 45] was ≥ 20 µM and the Kd [16, 45] was ≥ 20 µM.

In the case of DSPATLSAY, the Kd [17, 46] is reported as ≥ 20 µM, the Kd [3, 46] is reported as ≥ 20 µM and the Kd [4, 46] is reported as ≥ 20 µM. The Kd [7, 46] was ≥ 20 µM, the Kd [18, 46] was ≥ 20 µM and the Kd [8, 46] was ≥ 20 µM. For the same sequence, the Kd [9, 46] was ≥ 20 µM, the Kd [19, 46] was 5.53 µM and the Kd [12, 46] was ≥ 20 µM. The Kd [13, 46] was ≥ 20 µM, the Kd [20] was ≥ 20 µM and the Kd [14, 46] was ≥ 20 µM. For the same sequence, the Kd [15, 46] was ≥ 20 µM.

With GFPFFIMPK the Kd [21] was ≥ 20 µM, the Kd [22] was ≥ 20 µM and the Kd [23] was ≥ 20 µM. The Kd [24] was ≥ 20 µM, the Kd [25] was ≥ 20 µM and the Kd [26] was ≥ 20 µM. For the same sequence, the Kd [27] was ≥ 20 µM, the Kd [28] was ≥ 20 µM and the Kd [29] was ≥ 20 µM. The Kd [30, 47] was ≥ 20 µM, the Kd [4, 47] was 0.078 µM and the Kd [31] was ≥ 20 µM. The Kd [32] was ≥ 20 µM and the Kd [33] was ≥ 20 µM.

With KSISSIFGY the Kd [34] was ≥ 25.2 µM, the Kd [35] was 0.00327 µM and the Kd [36] was 0.0474 µM. For the same sequence, the Kd [37] was 0.0866 µM, the Kd [38] was 6.74 µM and the Kd [17, 48] was 0.037 µM. The Kd [7, 48] was 0.0015 µM and the Kd [19, 48] was ≤ 0.001 µM.

KSTSPTRTW was tested, and the Kd [17, 48] was 0.0707 µM, the Kd [7, 48] was 0.035 µM and the Kd [19, 48] was 0.0024 µM.

KTMMQAHDL showed a Kd ([17]; source organism: Bacillus cereus AH1134) of 0.12 µM, a Kd [7, 49] of 0.0759 µM and a Kd [19, 49] of 0.226 µM.

In the case of LSVSSRCPI, the Kd [17, 44] is reported as 1.17 µM, the Kd [7, 44] is reported as 0.139 µM and the Kd [19, 44] is reported as 0.0041 µM.

MAMLADYFY was tested, and the Kd [1, 50] was ≥ 20 µM, the Kd [2, 50] was ≥ 20 µM and the Kd [14, 51] was 0.012 µM.

For NTDNKFISY, the Kd [39, 52] was ≥ 5 µM, the Kd [40, 52] was ≥ 5 µM and the Kd [41, 52] was ≥ 5 µM. The Kd [8, 48] was ≤ 0.001 µM.

For QTSSIEGAW, the Kd [17, 53] was ≥ 20 µM, the Kd [7, 53] was ≥ 20 µM and the Kd [19, 53] was 5.78 µM.

With RPMTYKAAL the Kd [39, 54] was 0.0987 µM, the Kd [40, 54] was ≥ 5 µM and the Kd [41, 54] was ≥ 5 µM. The Kd [4, 54] was 17.6 µM, the Kd [2, 54] was 0.0396 µM and the Kd [10, 54] was 11 µM.

SERFINYAI was tested, and the Kd [39, 44] was ≥ 5 µM, the Kd [40, 44] was ≥ 5 µM and the Kd [41, 44] was ≥ 5 µM. It also gave a Kd [3, 44] of 0.0525 µM and a Kd [42] of 0.033 µM.

With SQDEVLFLV the Kd [43] was ≤ 0.001 µM, the Kd [30, 51] was 0.004 µM and the Kd [10, 50] was 0.0353 µM. For the same sequence, the Kd [15, 50] was 0.0045 µM.

In the case of YAKKFKTGM, the Kd [17, 55] is reported as ≥ 20 µM, the Kd [3, 55] is reported as ≥ 20 µM and the Kd [4, 55] is reported as ≥ 20 µM. The Kd [7, 55] was ≥ 20 µM, the Kd [18, 55] was ≥ 20 µM and the Kd [8, 55] was ≥ 20 µM. The Kd [9, 55] was ≥ 20 µM, the Kd [2, 55] was ≥ 20 µM and the Kd [11, 55] was 0.417 µM. The Kd [12, 55] was ≥ 20 µM, the Kd [13, 55] was ≥ 20 µM and the Kd [15, 55] was ≥ 20 µM. The Kd [16, 55] was ≥ 20 µM.
